What all share (assay): SPR Biacore 8K, 25 C, biotinylated GDF-15 on streptavidin C1 chip, Fab as analyte
Background: In SPR one partner is held on a chip, and binding of the other changes the refractive index at the surface.

Test [1] addresses T1, mature recombinant mouse GDF-15 with Flag and His tags (mouse, UniProt Q9Z0J7 189-303).
T1 construct: also called Flag tagged mouse GDF-15; not shown: FLAG and poly-His tags immediately C-terminal to the furin cleavage site (N-terminal on the mature protein)
T1 sequence: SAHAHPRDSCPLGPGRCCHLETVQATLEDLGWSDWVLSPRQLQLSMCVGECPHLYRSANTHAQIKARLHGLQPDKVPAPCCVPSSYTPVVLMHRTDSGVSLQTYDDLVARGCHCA
Here is the method: (§1) The experiments were carried out using mature recombinant human GDF-15, human GDF-15 H202D variant, mouse GDF-15, and cynomolgus GDF-15 with an N-terminal Flag and His tag. All species were chemically biotinylated using EZ link Sulfo-NHS-LC-Biotin (Thermo).
(§2) Streptavidin was covalently immobilized to a C1 chip surface using standard amine coupling techniques at a concentration of 4 μg/ml in 10 mM Sodium acetate pH 4.5. Recombinant biotinylated GDF-15 species were titrated onto the streptavidin chip surface in HBS-EP+ buffer to enable Fab binding.
(§3) Multiple buffer-only injections were made under the same conditions to allow for double reference subtraction of the final sensorgram sets, which were analyzed using Biacore 8K Evaluation Software. The chip surface was fully regenerated with pulses of 50 mM NaOH.

Test [2] has as its target T2, mature recombinant human GDF-15 H202D variant with an N-terminal Flag and His tag, biotinylated (human, UniProt Q99988 197-308, chemically biotinylated with EZ link Sulfo-NHS-LC-Biotin, sites not stated).
T2 construct: also called Human H202D; not shown: N-terminal Flag and His tags
T2 chain: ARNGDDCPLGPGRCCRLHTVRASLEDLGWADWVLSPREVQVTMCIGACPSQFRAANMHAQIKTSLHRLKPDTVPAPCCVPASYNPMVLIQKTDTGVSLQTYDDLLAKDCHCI
On the procedure: as §1, §2, §3

The target in test [3] is T3, mature recombinant cynomolgus GDF-15 with an N-terminal Flag and His tag, biotinylated (cynomolgus, UniProt G7PWZ3 197-308, chemically biotinylated with EZ link Sulfo-NHS-LC-Biotin, sites not stated).
T3 construct: not shown: N-terminal Flag and His tags
T3 sequence: T2 chain with D6R, R21H, A54E, T63M, S64N, I112V
Here is the method:
as §1, §2, §3

The target in test [4] is T4, mature recombinant human GDF-15 with an N-terminal Flag and His tag, biotinylated (human, UniProt Q99988 197-308, chemically biotinylated with EZ link Sulfo-NHS-LC-Biotin, sites not stated).
T4 construct: not shown: N-terminal Flag and His tags
T4 sequence: T2 chain with D6H
On the procedure:
as §1, §2, §3

The source of these data is patent US20220281965A1 (AstraZeneca / MedImmune, published 2022).

Usually Kd stands for the concentration at which binding is half-saturated. As a reminder, the koff is the first-order rate constant of dissociation. Usually kon stands for a measure of how fast the partners come together.

Positions count from the first letter of the chain named.

B1: AB1170241 Fab (Fab, V domains shown)
VH: QVQLVQSGSELKKPGASVKVSCKASGYTFTDYNMDWIRQSPGKGLEWIGDINPNQGGTFYNQKFKDRATLTVDKSTSTAYMELRSLRSDDTAVYYCAREEKLYFGLMDYWGQGTTVTVSS
VL: DIQMTQSPSSLSASVGDRVTITCRASENIYSYLAWYQQKPGKAPKLLVYNAKTLAEGVPSRFSGSGSGIDFTLTISSLQPEDFATYYCQHQYGSPPTFGQGTKLEIK
notes: Fab of the humanized antibody, expressed as in Spooner et al. 2015
For B1, the Kd in test [1] was determined as 107 nM; in test [2], 0.156 nM; in test [3], 0.476 nM; in test [4], 0.159 nM. The koff in test [1] was found to be 0.329 s⁻¹; in test [2] it was 0.000696 s⁻¹; in test [3], 0.00279 s⁻¹; in test [4] it was 0.000663 s⁻¹. Besides, the kon in test [1] amounted to 3.07e+06 M⁻¹ s⁻¹; in test [2], 4.45e+06 M⁻¹ s⁻¹; in test [3], 5.87e+06 M⁻¹ s⁻¹; in test [4], 4.18e+06 M⁻¹ s⁻¹.

B2: AB1170243 Fab (Fab, V domains shown)
VH: B1 VH with Q55N
VL: B1 VL
notes: as for B1
Consider B2, for which the Kd in test [1] is 75 nM; in test [2], 0.09 nM; in test [3], 0.273 nM; in test [4] it was 0.09 nM. Besides, the koff came out at 0.281 s⁻¹ in test [1], 0.000425 s⁻¹ in test [2], 0.00169 s⁻¹ in test [3] and 0.000422 s⁻¹ in test [4]. Moreover, the on-rate (kon) in test [1] came out at 3.9e+06 M⁻¹ s⁻¹; in test [2] it was 4.85e+06 M⁻¹ s⁻¹; in test [3], 6.23e+06 M⁻¹ s⁻¹; in test [4], 4.74e+06 M⁻¹ s⁻¹.

B3: AB1520085 Fab (Fab, V domains shown)
VH: QVQLQQPGAELVMPGASVKMSCKASGYTFTDYWMHWVKQRPGQGLEWIGVIDTSESYTSYNQKFKGKATLTVDESSSTAYMQLSSLTSEDSAVYFCARGGTTVVLDYWGQGTTLTVSS
VL: DIVMTQSQKFMSTSVGDRVSVTCKASQNVGTAVAWYQKKPGQSPKALIYSASTRYTGVPDRFTGSGSGTDFTLTISNVQSEDLAEYFCQQYSSSPWTFGGGTKLELK
notes: Fab of the anti-mouse GDF-15 mouse IgG1, expressed as in Spooner et al. 2015
As for B3, the Kd in test [1] was 0.14 nM; in test [2], 1.63 nM; in test [3], 2.8 nM; in test [4] it was 1.64 nM. Moreover, the koff stood at 0.000244 s⁻¹ in test [1], 0.00478 s⁻¹ in test [2], 0.0078 s⁻¹ in test [3] and 0.00489 s⁻¹ in test [4]. For the same molecule, the kon in test [1] is 1.75e+06 M⁻¹ s⁻¹; in test [2], 2.92e+06 M⁻¹ s⁻¹; in test [3] it was 2.79e+06 M⁻¹ s⁻¹; in test [4], 2.97e+06 M⁻¹ s⁻¹.

B4: AB1170244 Fab (Fab, V domains shown)
VH: EVQLVESGGGLVKPGGSLRLSCAASGFTFSSYAMSWVRQAPGKGLEWVAYISSGGDNIYYADTVKGRFTISRDNSKNTLYLQMNSLKTEDTAVYYCTRALVENAYFDYWGQGTTVTVSS
VL: DSVLTQSPDSLAVSLGERATINCRASKSVSTSTYSYMHWYQQKPGQPPKLLIKYASYLESGVPDRFSGSGSGTDFTLKISRVEAEDVGVYYCQHSREFPWTFGGGTKVEIK
notes: as for B1
In the case of B4, the Kd in test [1] amounted to 916 nM; in test [2] it was 2.39 nM; in test [3] it was 5.47 nM; in test [4] it was 2.35 nM. For the same molecule, the koff in test [1] is 0.54 s⁻¹; in test [2], 0.00595 s⁻¹; in test [3] it was 0.0145 s⁻¹; in test [4], 0.00558 s⁻¹. Also, the kon in test [1] came to 591000 M⁻¹ s⁻¹; in test [2], 2.49e+06 M⁻¹ s⁻¹; in test [3], 2.64e+06 M⁻¹ s⁻¹; in test [4], 2.39e+06 M⁻¹ s⁻¹.

B5: AB1170245 Fab (Fab, V domains shown)
VH: B4 VH with N57Y, E102D
VL: DIVLTQSPDSLAVSLGERATINCRASKSVSTSSYSYMHWYQQKPGQPPKLLIKYASYLEFGVPSRFSGSGSGTDFTLTISSLQPEDVATYYCQHSREFPWTFGGGTKVEIK
notes: as for B1
As for B5, the Kd turned out to be 2400 nM in test [1], 10.5 nM in test [2], 20.9 nM in test [3] and 10.2 nM in test [4]. For the same molecule, the koff was found to be 1.5 s⁻¹ in test [1], 0.0321 s⁻¹ in test [2], 0.0712 s⁻¹ in test [3] and 0.0315 s⁻¹ in test [4]. Moreover, the kon in test [1] came out at 643000 M⁻¹ s⁻¹; in test [2] it was 3.07e+06 M⁻¹ s⁻¹; in test [3] it was 3.42e+06 M⁻¹ s⁻¹; in test [4] it was 3.1e+06 M⁻¹ s⁻¹.

B6: AB1170242 Fab (Fab, V domains shown)
VH: QVQLQESGPGLLKPSQTLSLTCTVSGFSLSTYGMGVGWIRQPAGKGLEWLANIWWNDDKYYNSALKSRLTISKDTSKNQVSLKLSSVTAADTAVYYCAQEVYGWFAYWGQGTLVTVSS
VL: DIQMTQSPSTLSASVGDRVTITCKASQNVGTNVAWYQQKPGQPPKALIYSASYRYSGVPDRFSGSGSGTDFTLTISSLQAEDVAVYYCQQYNSYPLTFGQGTKLEIK
notes: as for B1
Consider B6, for which the Kd in test [1] was 908 nM; in test [2] it was 3.13 nM; in test [3] it was 2.88 nM; in test [4] it was 3.22 nM. The koff amounted to 0.826 s⁻¹ in test [1], 0.0233 s⁻¹ in test [2], 0.0245 s⁻¹ in test [3] and 0.0247 s⁻¹ in test [4]. For the same molecule, the kon in test [1] amounted to 903000 M⁻¹ s⁻¹; in test [2] it was 7.47e+06 M⁻¹ s⁻¹; in test [3], 8.5e+06 M⁻¹ s⁻¹; in test [4] it was 7.68e+06 M⁻¹ s⁻¹.

B7: AB1170249 Fab (Fab, V domains shown)
VH: B6 VH with A43L, E100M, V101A, G103S
VL: B6 VL with T10F, V29M, G30D, L96F
notes: as for B1
In the case of B7, the Kd was found to be 1140 nM in test [1], 3.04 nM in test [2], 3.11 nM in test [3] and 3.13 nM in test [4]. Further, the koff stood at 0.928 s⁻¹ in test [1], 0.0113 s⁻¹ in test [2], 0.0129 s⁻¹ in test [3] and 0.0114 s⁻¹ in test [4]. In addition, the on-rate constant (kon) was determined as 804000 M⁻¹ s⁻¹ in test [1], 3.72e+06 M⁻¹ s⁻¹ in test [2], 4.15e+06 M⁻¹ s⁻¹ in test [3] and 3.63e+06 M⁻¹ s⁻¹ in test [4].
